The values that follow come from patent US20200129532.

This series addresses T1, HA-tagged VDR (vitamin D receptor), wild type (UniProt P11473).
T1 sequence: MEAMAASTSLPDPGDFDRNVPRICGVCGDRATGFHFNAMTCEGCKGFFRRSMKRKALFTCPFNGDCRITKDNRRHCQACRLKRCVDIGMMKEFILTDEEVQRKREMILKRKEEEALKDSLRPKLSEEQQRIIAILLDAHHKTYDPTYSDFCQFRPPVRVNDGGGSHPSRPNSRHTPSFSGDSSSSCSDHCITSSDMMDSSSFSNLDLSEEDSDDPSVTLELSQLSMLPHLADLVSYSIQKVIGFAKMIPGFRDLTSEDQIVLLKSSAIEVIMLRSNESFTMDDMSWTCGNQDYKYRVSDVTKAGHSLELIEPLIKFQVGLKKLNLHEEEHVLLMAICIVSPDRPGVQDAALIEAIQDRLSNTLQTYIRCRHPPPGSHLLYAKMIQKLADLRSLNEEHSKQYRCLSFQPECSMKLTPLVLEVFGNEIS

As to enzymatically dead PCAF (D608A), the VDR acetylation entry was “but not with the enzymatically dead PCAF D608A mutant”.
